According to PMC8406658:
pKd: −log10 of the molar value.

Tests used:
[1] = target: Fc-tagged ACE2 recombinant protein (human) (UniProt Q9BYF1); assay: BLI
[2] = target: ACE2 (angiotensin-converting enzyme II receptor), full length, expressed on U937 cells (human) (UniProt Q9BYF1); assay: adhesion frequency assay (micropipette)

SARS2-RBD^WT (receptor-binding domain of the SARS-CoV-2 spike, residues 333-527) (domain or fragment; other documents disagree on this pair)
pKd [1]: 7.18
koff [1]: 0.0121 s⁻¹
kon [1]: 181000 M⁻¹ s⁻¹
koff [2]: 0.0569 s⁻¹
